Measurements reported in the nanobody polyreactivity screen of Harvey et al. (2022).

Assay: yeast display, Sf9 membrane polyspecificity reagent, FACS + sequencing; frameworks hold sequencing errors
Method in brief: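 A nanobody's polyreactivity label depends on the gate it was sorted from. Yeast display cells were stained with 10% biotinylated, detergent-solubilized Sf9 membrane reagent for 1 hour at 4 °C, enriched on streptavidin microbeads and sorted by FACS. The low and high (top ~1%) gates were set on anti-HA fluorescence for expression and streptavidin fluorescence for reagent binding.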

Row | Sequence | polyreactivity (PSR sort gate)
1 | QVQLVESGGGLVQAGGSLRLSCDASGRTFYFYVMGWYRQAPGKERELVARISWSGGSTYYADSVKGRFTISRDNAKNTVYLQMNSLKPEDTAVYYCARQYKYPSSGEYDSWGQGTQVTVSS | low polyreactivity
2 | QVQLVESGGGLVQAGGSLRLSCDASGSIFAKNAMGWYRQAPGKERELVAAIDLNGGSTYYADSVKGRFTISRDTAKNTVYLQMNILKPEDTAVYYCDVYYGHSCVIRSSPEYDSWGQGTQVTVSS | low polyreactivity
3 | QVQLVESGGGLVQAGGSLRLSCDASGSIFGRNAMGWYRQAPGKERELVAAISWRGGRTYYADSVKGRFTISRDNAKNTVYLQMNSLKPEDTAVYYCAATSGRPYEYGYWGQGTQVTVSS | high polyreactivity
4 | QVQLVESGGGLVQAGGSLRLSCDASGSIFLVYAMGWYRQAPGKERELVAAITSGGSTNYADSVKGRFTISRDNAKNTVYFQMNSLKPEDTAVYNCAAERGDTAYRKYDYWGQGTQVTVSS | low polyreactivity
5 | QVQLVESGGGLVQAGGSLRLSCDASGSIFMYNAMGWYRQAPGKERELVAAISSSSDRTYYADSVKGRFTISRDNAKKTVYLQMNSLKPEDTAVYYCNVVYIGWRKYEYWGQGTQVTVSS | high polyreactivity
6 | QVQLVESGGGLVQAGGSLRLSCDASGSIFRAYAMRWYRQAPGKERELVAAISSSSGRTYYADSVKGRFTISRDNAKTTVYLQLNSLKPEDTAVYYCAVTASTLVTSATYDYWGQGTQVTLSS | low polyreactivity
7 | QVQLVESGGGLVQAGGSLRLSCDASGSIFRLYAMGWYRQAPGKERELVARITRRCGDTYADSVKGRFTISRDNAKNTVYLQMNSLKREDTAVYYCAADGYHRYPGSSGYGYWGQGTQVTVSS | high polyreactivity
8 | QVQLVESGGGLVQAGGSLRLSCDASGSIFYGYTMGWYRQDPGKERELVAAIRKSGGSTNYADSVKGRFTISRDNAKNTVYLQMNSLKPEDTAVYYCAASYYRGRGYYWGQGTQVTVSS | high polyreactivity
9 | QVQLVESGGGLVQAGGSLRLSCDASGSIFYSKAMGWYRQAHGKERELVAAITVGGGRTYYADSVKGRFTISRDNAKNTVYLQMNSLNPEDTAVYYCAADSHASTYDYWGQGTQVTVSS | low polyreactivity
10 | QVQLVESGGGLVQAGGSLRLSCDASGSIVRYNAMGWYRQAPGKERELVADISTSGGSTYYADSVKGRFTISRDNANNTVYVQMNSLKPEDTAVYYCAKPWYSSGFDYWGQGTQVTVSS | high polyreactivity
11 | QVQLVESGGGLVQAGGSLRLSCDASGSIYRLNAMGWYRQAPGKEMELVAAITWSDSSTYYADSVKGRFTISRDNAKYTVYLQMNSLKPEDTAVYYCAADPQSYKYDYWGQGTQVTVSS | low polyreactivity
12 | QVQLVESGGGLVQAGGSLRLSCDASGSTFDVNTMGWYRQAPGKERELVAAIRLRGGSTYYADSVKGRFTISRDNAKNTVYLLMISLKPEDTAVYYCAADYTLIYDYCGQGTQVTVSS | low polyreactivity
13 | QVQLVESGGGLVQAGGSLRLSCDASGSTFFANAMGWYRQAPGKERELVAAITIGNTNYADSVKGRFTISRDNAKYTVYLQMNSLKPEDTAVYYCNASHVSHYRARDYWGQGTQVTVSS | low polyreactivity
14 | QVQLVESGGGLVQAGGSLRLSCDASGSTFFTYAMGWYRQSPGKERELVAAITRGGSTYYADSVKGRFTISRDNAKHTVYLQMNSLKPEDTAVYYCNVDPFTRQNHGNYWGQGTQVTVSS | high polyreactivity
15 | QVQLVESGGGLVQAGGSLRLSCDASGSTFGYYTMVWYRPSPGKERELVAAISSSGGSTYYADSVKGRFTISRDNAKNTVYLQMYSLKPEDTAVYYCNAEYGFYRAGSRGEYWGQGTQVTVSS | low polyreactivity
16 | QVQLVESGGGLVQAGGSLRLSCDASGSTFRWYTMGWYRPAPGKEREVVATISRSGGSTYNADSVKGRFTISRDNAKNTVYLQMNSLKPEDTAVYYCNKLGVSTHSYKYYYWGQGTQVTVSS | high polyreactivity
17 | QVQLVESGGGLVQAGGSLRLSCDASGSTFSYYTMGWYRQAPGKERELVAAITGSGGRTYYADSVKGRFTISRDNAKNTVYLQMNSLKPEDSAVYYCAARLYTAADHYNYWGQGTQVTVSS | high polyreactivity
18 | QVQLVESGGGLVQAGGSLRLSCDASGSTFYPYVMGWYRQAPGKERELVARITWSGGSTYYADSVKGRFTISRDNAKNTVYLQMNSLKPEDTAVYYCAALRYVNLLAQAYEYWGQGTQVTVSS | high polyreactivity
19 | QVQLVESGGGLVQAGGSLRLSCDASGSTIDWYAMGWYRQAPGKERELVAGITISAGRTYYADSVKGRFTISRDNAKNTVYLQMNSLKPEDTAVYYCAADVYYYLDMDHWGQGTQVTVSS | low polyreactivity
20 | QVQLVESGGGLVQAGGSLRLSCDASGSTIPTYAMGWYRQAPGKERELVASISVTTGSTYYADSVKGRFTISRDNAKNTVYLNMKSLKPEDTAVYFCAKRTYSRKFRGSYNYWGQGTEVTVSS | high polyreactivity
21 | QVQLVESGGGLVQAGGSLRLSCGASGFIFKSYAMGWYRQATGKERELVAAFSRSGSSTYYADSVMGRFTISRDNAKNTVYLQMNSLKPEDTAVYYCAKKGYRFIHFGYDYWGQGTQVTVSS | high polyreactivity

Row | Sequence | polyreactivity (PSR sort gate)
22 | QVQLVESGGGLVQAGGSLRLSCGASGFIFLKNAMGWYRQAPGKARELVAAITRSGDITYYADSVKGRFTISRDNAKNTVYLKMNSLKPEDTAVYYCATTREFPSYDSWGQGTQVTVSS | low polyreactivity
23 | QVQLVESGGGLVQAGGSLRLSCGASGFTFPYYAMGWYIQAPGKERELVAAITSSGGSTYYADSVKGRFTISRDNAKNTVYLQMNSLNPEDTAVYYCAVDAYYYKWYDYWGQGTQVTVSS | high polyreactivity
24 | QVQLVESGGGLVQAGGSLRLSCGASGFTFYSYAMGWYRPARGKARELVATITKSGGNTYYADSVKGRFTISRDNAKNTVYLQMTSLKPVDTAVYYCAAATKVGRYKRKTVSYYYWCQGTQVTVSS | high polyreactivity
25 | QVQLVESGGGLVQAGGSLRLSCGASGLTFAYYAMRWYRQAPGKERELVAAISSSGRSTYYADSVKGRFTISRDNAKNTVYLQMNSLTEEDTAVSYCDKVGPWYYWERDYWGQCTQVTVSS | high polyreactivity
26 | QVQLVESGGGLVQAGGSLRLSCGASGNTINVNTMGWYRQGPGKERELVAAINSGDNTNYADSVKGRFTISRDNAKNTVYLQMNSLNPVDTAVYSCAAQDYARGVVPGRRAIGYWGQCTQVTVSS | high polyreactivity
27 | QVQLVESGGGLVQAGGSLRLSCGASGRIFRGYAMGWYRQGPGKERELVAAISRRGGSTYYADSVKGRFTISRDNAKNTVYLQMNSLKPVDTAVYYCNADGVHYVAYAGGYWGQGTQVTVSS | high polyreactivity
28 | QVQLVESGGGLVQAGGSLRLSCGASGRSSYVYAMGWYRQAPGKERELVAAITSSGGSTYYADSVKGRFTISRDNAKNTVYLQMNSLKPEDTAVYYCAAETYPVWGVAFYYWGQGTQVTVSS | high polyreactivity
29 | QVQLVESGGGLVQAGGSLRLSCGASGRTFKLYAMGWYRQAPAKERELVATIRRSGTRTYADSVKGRFTISRDNAKNTVYLQINSLKQEDTAVYYCAATTYAYVYHRYDYWGQGTQVTVSS | high polyreactivity
30 | QVQLVESGGGLVQAGGSLRLSCGASGSIFPDYAMGWYRQAPGKERELVAAITWSGGSTYYADSVKGRFTISRDNAKNTVNLQMNSLKPEDTAVYYCAAQLDPEWRGYFDQYGYDYWGQGTQVTVST | low polyreactivity
31 | QVQLVESGGGLVQAGGSLRLSCGASGSIRANMGSYRQAPGKETELVAVITTSGASTSYAVSVKGRFTISRDNAKNTVYLQMNRLKPEDTAVYYCAADIYYYPHTYYRDGYYYWGQGSQVTVSS | low polyreactivity
32 | QVQLVESGGGLVQAGGSLRLSCGASGSTFRLYALGWYRQAPGNEWAFVAAISFRGGSTYYADSVKGRFTISRDNAQNTVYLQMNSLKPEDTAVYYCAAEVGTGGVRTPRYEYWGQGTQVTVSS | high polyreactivity
33 | QVQLVESGGGLVQAGGSLRLSCGASGSTSKYYAMGWYRQAPGKERELVAAITWSDVSTYFADSVKGRFTISRDNAKHNVYLQMNSLKPEDTAVYYCNAGYDYWGQGTQVTVSS | low polyreactivity
34 | QVQLVESGGGLVQAGGSLRLSCGASGTIFDYYVMGWYRQAPVKERELVAAISWSGASTYYADSVKGRFTISRDNAKNTVYLQMNSLKPDDTAVYYCAADYGVNTLIDYDYWGQGTQVTVSS | low polyreactivity
35 | QVQLVESGGGLVQAGGSLRLSCPASGFNFLYYAMGWYRQAPGTEREFVAAIRSSGTTTSYADSVKGRFTISRDNAKNTVYLEMISLKPVDTAVYYCAAGYFGPQQYYYWGQGSQVTVSS | high polyreactivity
36 | QVQLVESGGGLVQAGGSLRLSCPASGFNFRYYAIGWYRQAPGKERQLVAAISRIGGSTNYADSVKGRFTISRDNAKNTVYLQLNSLKPEDTAVYYCAVAEGYSPAYLRDYWGQGSQVTVSS | high polyreactivity
37 | QVQLVESGGGLVQAGGSLRLSCPASGFTFKSYAMGWYRQAPGKERELVAAISRGGSTYYADSVKGRFTISRDNAKNTVYLQMNSLKPEDTAVYYCNKTRYSRSYYEYDYWGQGTQVTVSS | low polyreactivity
38 | QVQLVESGGGLVQAGGSLRLSCPASGFTFTIYAMGWYRQAPGKERELLATISGRAGRTYYADSVKGRFTISRDNAKNTVYLQMNSLKPEDTAVYDCAARVWYQGYKSMGYWGQGTQVTVSS | high polyreactivity
39 | QVQLVESGGGLVQAGGSLRLSCPASGFTFYGYAMGWYRQAPGKERELVAAIRYSGGSTYYADSVKGRFTISRDNAKNTVYLQMNSLKPEDTAVYYCNKRLIYYRGTYYSRRFDYWGQGTQVTVSS | high polyreactivity
40 | QVQLVESGGGLVQAGGSLRLSCPASGFTFYRYAMGWYRQSPGKEREFVAAITWSGGSTYYADSVKGRFTISRDNAKNTVYLQMNSLKPEDTAVYYCAAYVALDGTREYDYWGQGTQVTVSS | high polyreactivity
41 | QVQLVESGGGLVQAGGSLRLSCPASGGTFSFYTMGGYRQSPGKEREWVAAIDSTGRTNYADSVKGRFTISRDYPKNTVYLQMNRLIPEDTAVYYCAAVSPTYPYTFYRYNYWGQGTQVTVSS | low polyreactivity
